Reference: patent publication US20240424127A1 (BRIGHT PEAK THERAPEUTICS, published 2024)
Like-named read-outs stand apart in the source and are kept apart here. Bridges are numbered along the chain shown (N, C = ends). [ ]: non-standard residue; d: D form. glutaryl‑PEG9‑azide = glutaryl-PEG9-azide group on the N-terminal amine; L6P = lysine side chain carrying PEG6-NH2 (diglycolyl-PEG-amine); hSer = N[C@@H](CCO)C(=O)O; Nle = CCCC[C@H](N)C(=O)O

Columns and labels:
[1] = target: T1, Recombinant Human IL-7R alpha/CD127 Fc Avi-tag Protein, CF (R&D Systems #AVI10317-050) (human, UniProt P16871 21-239); assay: BLI (Octet R8); CD127-Fc-Avi loaded on SAX2 sensor, IL-7 polypeptide as analyte
T1 construct: Bought construct; It was loaded on streptavidin (SAX/SAX2) biosensors; not shown: Fc and Avi-tag of a bought protein
T1 sequence (looked up): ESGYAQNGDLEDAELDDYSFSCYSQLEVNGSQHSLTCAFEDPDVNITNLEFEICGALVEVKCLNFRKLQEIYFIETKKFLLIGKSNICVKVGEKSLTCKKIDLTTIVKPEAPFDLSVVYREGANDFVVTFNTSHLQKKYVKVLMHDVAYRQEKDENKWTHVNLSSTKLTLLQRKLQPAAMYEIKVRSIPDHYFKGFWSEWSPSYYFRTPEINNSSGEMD

[2] = target: T2, IL-7 receptor (IL-7Rα/γc heterodimer) on primary human T cells (human, UniProt P16871 21-459; P31785 23-369); assay: cell-based or functional assay
T2 sequence (looked up) 1: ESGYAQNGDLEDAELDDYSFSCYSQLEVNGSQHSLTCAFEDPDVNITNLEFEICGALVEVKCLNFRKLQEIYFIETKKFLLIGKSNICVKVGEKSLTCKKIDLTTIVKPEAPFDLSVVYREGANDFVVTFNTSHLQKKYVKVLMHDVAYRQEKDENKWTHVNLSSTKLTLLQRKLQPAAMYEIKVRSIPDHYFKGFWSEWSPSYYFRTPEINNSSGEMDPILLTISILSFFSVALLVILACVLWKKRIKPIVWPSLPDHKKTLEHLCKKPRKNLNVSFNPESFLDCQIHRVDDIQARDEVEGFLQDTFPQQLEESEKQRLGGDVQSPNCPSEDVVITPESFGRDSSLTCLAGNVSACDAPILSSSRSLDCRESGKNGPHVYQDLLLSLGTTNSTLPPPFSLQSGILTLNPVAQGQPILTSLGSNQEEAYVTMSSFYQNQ
T2 sequence (looked up) 2: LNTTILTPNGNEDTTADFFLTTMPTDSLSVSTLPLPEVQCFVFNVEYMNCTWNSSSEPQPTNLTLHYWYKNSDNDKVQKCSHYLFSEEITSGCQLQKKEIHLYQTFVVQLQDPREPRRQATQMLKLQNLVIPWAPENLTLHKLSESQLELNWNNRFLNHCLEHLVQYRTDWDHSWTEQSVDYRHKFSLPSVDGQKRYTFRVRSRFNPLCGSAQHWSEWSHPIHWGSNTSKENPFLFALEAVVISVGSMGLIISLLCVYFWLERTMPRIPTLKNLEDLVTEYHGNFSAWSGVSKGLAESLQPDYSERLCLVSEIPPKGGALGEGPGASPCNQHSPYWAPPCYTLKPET

[3] = target: T1, Recombinant Human IL-7R alpha/CD127 Fc …; assay: BLI (Octet R8); CD127-Fc-Avi loaded on SAX2 sensor, IL-7 polypeptide as analyte; remark: listed apart in the source
[4] = target: T1, Recombinant Human IL-7R alpha/CD127 Fc …; assay: as above; remark: listed apart in the source
[5] = target: T1, Recombinant Human IL-7R alpha/CD127 Fc …; assay: as above; remark: listed apart in the source
[6] = target: T1, Recombinant Human IL-7R alpha/CD127 Fc …; assay: as above; remark: listed apart in the source
[7] = target: T1, Recombinant Human IL-7R alpha/CD127 Fc …; assay: as above; remark: listed apart in the source
[8] = target: T1, Recombinant Human IL-7R alpha/CD127 Fc …; assay: as above; remark: listed apart in the source
[9] = target: T1, Recombinant Human IL-7R alpha/CD127 Fc …; assay: as above; remark: listed apart in the source
[10] = target: T1, Recombinant Human IL-7R alpha/CD127 Fc …; assay: as above; remark: listed apart in the source
[11] = target: T3, Biotinylated Recombinant Human PD-1 (CD279)-Fc Chimera (carrier-free), Biolegend #789406 (human, UniProt Q15116 25-167, biotinylated); assay: Direct huPD1 ELISA: immunocytokine coated on the plate, serial dilution of biotinylated human PD-1-Fc (x axis 'Biotin PD1 (nM)'), signal at 450 nm
T3 construct: Bought PD-1-Fc; also called h-PD1 Fc; not shown: Fc part of a bought chimera

[12] = target: T1, Recombinant Human IL-7R alpha/CD127 Fc …; assay: BLI (Octet R8); CD127-Fc-Avi loaded on SAX2 sensor, immunocytokine as analyte

T3 sequence (Q15116 25-167, change not shown): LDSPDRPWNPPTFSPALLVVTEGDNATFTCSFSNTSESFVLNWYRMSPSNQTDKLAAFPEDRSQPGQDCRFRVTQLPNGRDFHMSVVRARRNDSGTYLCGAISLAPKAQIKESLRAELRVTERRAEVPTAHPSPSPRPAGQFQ

Binder	EC50 pSTAT5, CD4 Memory [2]	EC50 pSTAT5, CD4 Naive [2]	EC50 pSTAT5, CD4 Treg [2]	EC50 pSTAT5, CD8 Memory [2]	EC50 pSTAT5, CD8 Naive [2]	further results
CMP-106, recombinant IL-7 V15W with His-tag (ligand, V15W is already in the entry, which also includes the C-terminal His-tag; also called IL-7 V15W (Recomb-HIS6)) DCDIEGKDGKQYESWLMVSIDQLLDSMKEIGSNCLNNEFNFFKRHICDANKEGMFLFRAARKLRQFLKMNSTGDFDLHLLKVSEGTTILLNCTGQVKGRKPAALGEAQPTKSLEENKSLKEQKKLNDLCFLKRLLQEIKTCWNKILMGTKEHVDHHHHHH	0.93 nM	0.814 nM	27.7 nM	3.22 nM	1.28 nM	Kd [1]: 66.3 nM; koff [1]: 0.0321 s⁻¹; kon [1]: 485000 M⁻¹ s⁻¹
CMP-111, synthetic IL-7 K81(L6P), G85N of SEQ ID NO: 8 with glutaryl-PEG9-azide at the N-terminus (ligand, disulfide 34-129, 47-141, 2-92) {glutaryl‑PEG9‑azide}-DCDIEGKDGKQYESVL[Nle]VSIDQLLDS[Nle]KEIGSNCL[hSer]NEFNFFKRHICDANKEG[Nle]FLFRAARKLRQFLK[Nle]NSTGDF[hSer]LHLLK(L6P)VSENTTILLNCTGQVKGRKPAALGEAQPTKSL[hSer]ENKSLKEQKKLNDLCFLKRLLQEIKTCWNKIL[Nle]GTKEH-NH2	11.2 nM	11.6 nM	82.3 nM	16.2 nM	12.3 nM	koff [3]: 0.0353 s⁻¹; kon [3]: 1.41e+06 M⁻¹ s⁻¹; Kd [4]: 16.5 nM; koff [4]: 0.0318 s⁻¹; kon [4]: 1.92e+06 M⁻¹ s⁻¹
CMP-202, synthetic IL-7 variant of Example 2W (ligand, disulfide 34-129, 47-141) {glutaryl‑PEG9‑azide}-DSDIEGKDGKQYESVL[Nle]VSIDQLLDS[Nle]KEIGSNCL[hSer]NEFNFFKRHICDANKEG[Nle]FLFRAARKLRQFLK[Nle]NSTGDF[hSer]LHLLK(L6P)VSENTTILLNSTGQVKGRKPAALGEAQPTKSL[hSer]ENKSLKEQKKLNDLCFLKRLLQEIKTCWNKIL[Nle]GTKEH-NH2	38.1 nM	18.9 nM	32.7 nM	37.4 nM	20.4 nM	Kd [5]: 25.4 nM; koff [5]: 0.00997 s⁻¹; kon [5]: 393000 M⁻¹ s⁻¹
CMP-108, synthetic IL-7 of SEQ ID NO: 3 with glutaryl-PEG9-azide at the N-terminus (ligand, disulfide 34-129, 47-141, 2-92, The suffix is not explained; also called synthetic IL-7, WT with an N-terminal conjugation handle) {glutaryl‑PEG9‑azide}-DCDIEGKDGKQYESVL[Nle]VSIDQLLDS[Nle]KEIGSNCL[hSer]NEFNFFKRHICDANKEG[Nle]FLFRAARKLRQFLK[Nle]NSTGDF[hSer]LHLLKVSEGTTILLNCTGQVKGRKPAALGEAQPTKSL[hSer]ENKSLKEQKKLNDLCFLKRLLQEIKTCWNKIL[Nle]GTKEH-NH2	6 pM	6 pM	20 pM	8 pM	8 pM	Kd [3]: 2.75 nM; koff [3]: 0.00901 s⁻¹; kon [3]: 3.28e+06 M⁻¹ s⁻¹; Kd [6]: 0.254 nM; koff [6]: 0.00167 s⁻¹; kon [6]: 6.59e+06 M⁻¹ s⁻¹
CMP-110, synthetic IL-7 G85N of SEQ ID NO: 7 with glutaryl-PEG9-azide at the N-terminus (ligand, disulfide 34-129, 47-141, 2-92, The suffix is not explained; also called CMP-110-001) {glutaryl‑PEG9‑azide}-DCDIEGKDGKQYESVL[Nle]VSIDQLLDS[Nle]KEIGSNCL[hSer]NEFNFFKRHICDANKEG[Nle]FLFRAARKLRQFLK[Nle]NSTGDF[hSer]LHLLKVSENTTILLNCTGQVKGRKPAALGEAQPTKSL[hSer]ENKSLKEQKKLNDLCFLKRLLQEIKTCWNKIL[Nle]GTKEH-NH2	30 pM	30 pM	67 nM	80 pM	50 pM	koff [7]: 0.0225 s⁻¹; kon [7]: 2.51e+06 M⁻¹ s⁻¹; Kd [8]: 9.47 nM; koff [8]: 0.0269 s⁻¹; kon [8]: 2.84e+06 M⁻¹ s⁻¹
CMP-200, IL-7 syntein missing C2-C92 disulphide bond, N-terminus with glutaric acid and azido-PEG (ligand, disulfide 34-129, 47-141, also called CMP-200-001) {glutaryl‑PEG9‑azide}-DSDIEGKDGKQYESVL[Nle]VSIDQLLDS[Nle]KEIGSNCL[hSer]NEFNFFKRHICDANKEG[Nle]FLFRAARKLRQFLK[Nle]NSTGDF[hSer]LHLLKVSEGTTILLNSTGQVKGRKPAALGEAQPTKSL[hSer]ENKSLKEQKKLNDLCFLKRLLQEIKTCWNKIL[Nle]GTKEH-NH2	30 pM	20 pM	0.14 nM	40 pM	30 pM	Kd [9]: 7.18 nM; koff [9]: 0.00879 s⁻¹; kon [9]: 1.22e+06 M⁻¹ s⁻¹
CMP-201, synthetic IL-7 variant of Example 2V (ligand, disulfide 34-129, 47-141) {glutaryl‑PEG9‑azide}-DSDIEGKDGKQYESVL[Nle]VSIDQLLDS[Nle]KEIGSNCL[hSer]NEFNFFKRHICDANKEG[Nle]FLFRAARKLRQFLK[Nle]NSTGDF[hSer]LHLLKVSENTTILLNSTGQVKGRKPAALGEAQPTKSL[hSer]ENKSLKEQKKLNDLCFLKRLLQEIKTCWNKIL[Nle]GTKEH-NH2	0.7 nM	0.8 nM	4.45 nM	1.7 nM	1.2 nM	Kd [10]: 19.2 nM; koff [10]: 0.00996 s⁻¹; kon [10]: 518000 M⁻¹ s⁻¹
CMP-116, LZM-009 conjugated to synthetic IL-7 (V15W) CMP-107, DAR 1, at K248 (other, not fully specified; norleucine (Nle) at 17, 27, 54, 69, 147; homoserine (Hse) at 36, 76, 114; N-terminal glutaryl-PEG9-azide reacted with the DBCO linker on the antibody; K248 (EU numbering) of the Fc region carries the linker to IL-7 (DAR 1), Immunocytokine (chemical conjugate)) VH: QVQLVQSGAEVKKPGASVKVSCKASGYTFTSYYMYWVRQAPGQGLEWMGGVNPSNGGTNFNEKFKSRVTITADKSTSTAYMELSSLRSEDTAVYYCARRDYRYDMGFDYWGQGTTVTVSS VL: EIVLTQSPATLSLSPGERATISCRASKGVSTSGYSYLHWYQQKPGQAPRLLIYLASYLESGVPARFSGSGSGTDFTLTISSLEPEDFATYYCQHSRELPLTFGTGTKVEIK DCDIEGKDGKQYESWLXVSIDQLLDSXKEIGSNCLXNEFNFFKRHICDANKEGXFLFRAARKLRQFLKXNSTGDFXLHLLKVSEGTTILLNCTGQVKGRKPAALGEAQPTKSLXENKSLKEQKKLNDLCFLKRLLQEIKTCWNKILXGTKEH						EC50 [11]: 0.0341 nM; koff [12]: 0.0473 s⁻¹; kon [12]: 2.9e+06 M⁻¹ s⁻¹
